One experiment deals with T1, Recombinant human Vti1a (human, UniProt Q96AJ9 1-217).
T1 sequence (looked up): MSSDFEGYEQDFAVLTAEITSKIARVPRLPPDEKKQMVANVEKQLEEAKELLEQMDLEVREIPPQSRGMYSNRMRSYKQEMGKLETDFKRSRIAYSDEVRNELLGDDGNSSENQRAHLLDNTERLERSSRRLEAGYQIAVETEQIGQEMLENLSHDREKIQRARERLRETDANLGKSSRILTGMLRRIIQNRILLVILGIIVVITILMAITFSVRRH
Nature of the experiment: pull-down.

Experiment [1] has as its target T2, Recombinant human Syntaxin6 (human, UniProt O43752 1-255).
T2 sequence: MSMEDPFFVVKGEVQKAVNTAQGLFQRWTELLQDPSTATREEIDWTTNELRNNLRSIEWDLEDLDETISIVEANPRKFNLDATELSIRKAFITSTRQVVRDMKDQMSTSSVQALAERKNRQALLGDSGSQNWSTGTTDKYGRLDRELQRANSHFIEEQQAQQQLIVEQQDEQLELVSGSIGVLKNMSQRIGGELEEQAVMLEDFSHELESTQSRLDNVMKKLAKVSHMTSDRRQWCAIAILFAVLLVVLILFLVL
Nature of the experiment: pull-down.

B1: GST-VAMP4 (natural protein, human, UniProt O75379 1-141, looked up)
chain: MPPKFKRHLNDDDVTGSVKSERRNLLEDDSDEEEDFFLRGPSGPRFGPRNDKIKHVQNQVDEVIDVMQENITKVIERGERLDELQDKSESLSDNATAFSNRSKQLRRQMWWRGCKIKAIMALVAAILLLVIIILIVMKYRT
As to B1, the binding result (with Recombinant human Vti1a; in experiment [1]) was “binds” in each case.
